Assay in all cases: SPOT array
Experiment [1] deals with T1, Boi2 SH3 (BOI2_YEAST), P39969.
T1 chain: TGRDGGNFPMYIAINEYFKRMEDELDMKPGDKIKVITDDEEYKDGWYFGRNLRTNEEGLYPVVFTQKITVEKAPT

For experiment [2], the target named is Sho1 SH3 (SHO1_YEAST), P40073.
Experiment [3] has as its target T2, Boi1 SH3 (BOI1_YEAST), P38041.
T2 chain: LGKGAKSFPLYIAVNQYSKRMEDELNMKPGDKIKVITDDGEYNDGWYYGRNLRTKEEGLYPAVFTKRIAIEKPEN

Experiment [4] deals with T3, Rvs167 SH3 (RV167_YEAST), P39743.
T3 chain: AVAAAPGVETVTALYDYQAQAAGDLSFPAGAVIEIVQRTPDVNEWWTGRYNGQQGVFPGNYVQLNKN

The target in experiment [5] is T4, Myo5 SH3 (MYO5_YEAST), Q04439.
T4 chain: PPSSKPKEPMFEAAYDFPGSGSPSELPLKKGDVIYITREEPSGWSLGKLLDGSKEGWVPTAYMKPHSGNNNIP

Experiment [6] has as its target T5, Yfr024 SH3 (LSB3_YEAST), P43603.
T5 chain: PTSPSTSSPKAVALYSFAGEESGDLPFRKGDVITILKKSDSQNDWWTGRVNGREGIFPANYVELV

The target in experiment [7] is T6, Yhr016c SH3 (YSC84_YEAST), P32793.
T6 chain: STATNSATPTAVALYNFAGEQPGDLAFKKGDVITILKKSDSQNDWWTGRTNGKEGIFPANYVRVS

The values below come from article PMC314469, “Protein Interaction Networks by Proteome Peptide Scanning” (PLoS Biology, 2004).

Chain of Sho1 SH3 (SHO1_YEAST), P40073 (P40073 295-366): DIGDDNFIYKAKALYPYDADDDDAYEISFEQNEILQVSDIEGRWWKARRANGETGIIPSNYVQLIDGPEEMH

On to ETGVRYGPEFPLST [YNL277W 122-135], for which the normalised SPOT signal, Boehringer light units (BLU); mean over the file's lines of this peptide in experiment [1] was determined as 23.4; in experiment [2], 23.1; in experiment [3], 93.9; in experiment [4] it was 11.9; in experiment [5], 96.2; in experiment [6], 7.2. In addition, the normalised SPOT signal, Boehringer light units (BLU); mean over the file's lines of this peptide in experiment [7] worked out at 40.6.
As for ELDTKTIPELPFSM [YJR092W 117-130], the normalised SPOT signal, Boehringer light units (BLU); mean over the file's lines of this peptide is 24.8 in experiment [1]; 44.1 in experiment [2]; -0 in experiment [3]; 98.8 in experiment [4]; 53.2 in experiment [5]; 27.4 in experiment [6]. In experiment [7], this molecule returned a normalised SPOT signal, Boehringer light units (BLU); mean over the file's lines of this peptide of 12.8.
Consider ENENKKLPPAPTVF [YKR103W 236-249], for which the normalised SPOT signal, Boehringer light units (BLU); mean over the file's lines of this peptide was determined as 12.9 in experiment [1]; 3520 in experiment [2]; 50.9 in experiment [3]; 22 in experiment [4]; 67.7 in experiment [5]; 16.2 in experiment [6]. The molecule also yielded a normalised SPOT signal, Boehringer light units (BLU); mean over the file's lines of this peptide in experiment [7] of 24.6.
For the molecule EKVFRGDPEHPAIS [YJR010W 130-143], the normalised SPOT signal, Boehringer light units (BLU); mean over the file's lines of this peptide was 15.1 in experiment [1]; 75.6 in experiment [2]; 17400 in experiment [3]; 66.3 in experiment [4]; 90 in experiment [5]; 48.5 in experiment [6]. In experiment [7], this molecule displayed a normalised SPOT signal, Boehringer light units (BLU); mean over the file's lines of this peptide of 67.9.
On to ETTTRETPLPPIPA [YPL207W 797-810], for which the normalised SPOT signal, Boehringer light units (BLU); mean over the file's lines of this peptide in experiment [1] was determined as 43.2; in experiment [2], 1020; in experiment [3], 85; in experiment [4] it was 167; in experiment [5], 178; in experiment [6], 108. This molecule also gave a normalised SPOT signal, Boehringer light units (BLU); mean over the file's lines of this peptide in experiment [7] of 71.1.
As for ELDIKQGPVRPFIV [YDL095W 18-31], the normalised SPOT signal, Boehringer light units (BLU); mean over the file's lines of this peptide turned out to be 33.2 in experiment [1]; 27.9 in experiment [2]; 86.2 in experiment [3]; 24.5 in experiment [4]; 161 in experiment [5]; 41.1 in experiment [6]. Further, the normalised SPOT signal, Boehringer light units (BLU); mean over the file's lines of this peptide in experiment [7] stood at 17.8.
With ETKKKWQPLPPEPL [YOR042W 368-381], the normalised SPOT signal, Boehringer light units (BLU); mean over the file's lines of this peptide in experiment [1] amounted to 13.2; in experiment [2], 436; in experiment [3], 116; in experiment [4], 28.5; in experiment [5] it was 256; in experiment [6], 30.2. Moreover, the normalised SPOT signal, Boehringer light units (BLU); mean over the file's lines of this peptide in experiment [7] amounted to 2.5.
As for EKYGKDQPESPVPE [YMR285C 368-381], the normalised SPOT signal, Boehringer light units (BLU); mean over the file's lines of this peptide in experiment [1] is 12.1; in experiment [2], 66.3; in experiment [3], 62.1; in experiment [4], 41.8; in experiment [5] it was 143; in experiment [6] it was 0. The normalised SPOT signal, Boehringer light units (BLU); mean over the file's lines of this peptide in experiment [7] is 1.6.
On to EVLRKYIPGEPEFL [YDR023W 429-442], for which the normalised SPOT signal, Boehringer light units (BLU); mean over the file's lines of this peptide in experiment [1] amounted to 0; in experiment [2], 47.5; in experiment [3], 46.4; in experiment [4], 6.9; in experiment [5], 169; in experiment [6] it was 0. The same molecule registered a normalised SPOT signal, Boehringer light units (BLU); mean over the file's lines of this peptide in experiment [7] of 10.4.
In the case of EKNARGIPQAPFIE [YGR078C 9-22], the normalised SPOT signal, Boehringer light units (BLU); mean over the file's lines of this peptide was 10.5 in experiment [1]; 24.1 in experiment [2]; 48.1 in experiment [3]; 33.4 in experiment [4]; 136 in experiment [5]; 202 in experiment [6]. In experiment [7], the normalised SPOT signal, Boehringer light units (BLU); mean over the file's lines of this peptide is 42.5.
With EVENKLRPDLPVKN [YFR030W 637-650], the normalised SPOT signal, Boehringer light units (BLU); mean over the file's lines of this peptide came out at 24.9 in experiment [1]; 39.1 in experiment [2]; 31.6 in experiment [3]; 44.1 in experiment [4]; 40.7 in experiment [5]; 1360 in experiment [6]. For the same molecule, the normalised SPOT signal, Boehringer light units (BLU); mean over the file's lines of this peptide in experiment [7] is 14.9.
Take ERDGRGVPLGPRNH [YGL023C 22-35]: the normalised SPOT signal, Boehringer light units (BLU); mean over the file's lines of this peptide turned out to be 25 in experiment [1]; 38 in experiment [2]; 370 in experiment [3]; 35.7 in experiment [4]; 121 in experiment [5]; 643 in experiment [6]. Further, the normalised SPOT signal, Boehringer light units (BLU); mean over the file's lines of this peptide in experiment [7] was found to be 50.2.
Turning to ELQIRYKPTPPLKK [YPL074W 331-344], the normalised SPOT signal, Boehringer light units (BLU); mean over the file's lines of this peptide is 17.3 in experiment [1]; 76.5 in experiment [2]; 87.9 in experiment [3]; 188 in experiment [4]; 171 in experiment [5]; 930 in experiment [6]. In addition, the normalised SPOT signal, Boehringer light units (BLU); mean over the file's lines of this peptide in experiment [7] was 42.2.
As for ETSLRVLPIAPKIF [YDL231C 393-406], the normalised SPOT signal, Boehringer light units (BLU); mean over the file's lines of this peptide worked out at 47.6 in experiment [1]; 2880 in experiment [2]; 426 in experiment [3]; 766 in experiment [4]; 548 in experiment [5]; 399 in experiment [6]. The normalised SPOT signal, Boehringer light units (BLU); mean over the file's lines of this peptide in experiment [7] is 55.1.
